Assay results as given in patent US20160053014A1 (SORRENTO THERAPEUTICS, published 2016).
Residue numbers refer to the chain shown, from its start. Where “and” joins values, the source holds several entries; their conditions need not be identical. Equal entries are not always repeated.

B1: 13G9 (antibody, V domains shown)
VH: EVQLVESGGGVVQPGRSLRLSCAASGFTFSRYGMHWVRQSPGKGLEWVAGISYDGSDKYYADSVKGRFTISRANSKNTLFLQMNSLRAEDTAVYYCARARGLDYWGQGTTVTVSS
VL: QAVLTQPASVSGSPGQSITISCTGTSSDIGSYNLVSWYQQHPGKAPKLIIYEVNKRPSGVSNRFSGSKSGNTASLTISGLQAEDEADYYCSSYRSINTVVFGGGTQLTVL
notes: tested as human IgG
B2: 14F11 (antibody, V domains shown)
VH: EVQLVQSGAEVKKPGASVKVSCKASGSTFTNYYIHWVRQAPGQGLEWMGIINPSGGSIGSPQKFQGRVTMTRDTSTNTVYMELSSLRSEDTAVYYCASRSFGNDGVFDIWGQGTMVTVSS
VL: LPVLTQPRSVSGSPRQSVTISCTGTSSDVGGYNYVSWYQQHPGKAPKLMIYDVSKRPSGVPDRFSGSKSGNTASLTISGLQAEDEAHYYCKSYTTSRTWVFGGGTKLTVL
notes: tested as human IgG
B3: 52A10 (antibody, V domains shown)
VH: QVQLVQSGAEVKKPGASVKVSCKASGYTFTSYGISWVRQAPGQGLEWVGWISAYNGNTNYAQKLQGRVTMTTDTSTSTAYMELRSLRSDDTAVYYCARGSDYWGQGTLVTVSS
VL: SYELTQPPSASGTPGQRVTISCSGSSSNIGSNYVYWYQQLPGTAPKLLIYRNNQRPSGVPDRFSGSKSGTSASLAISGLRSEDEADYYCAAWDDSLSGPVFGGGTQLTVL
notes: tested as human IgG
B4: 14B11 (antibody, V domains shown)
VH: QVQLVESGGGVVQPGMSLRLSCAASGFTFSSHAMHWVRQAPGKGLEWVAQIWSDGSNRYYSDSVKGRFTISRDQSKNTVSLQMNSLRAEDTAVYFCARDGQSMAPYAMDVWGQGTMVTVSS
VL: DIVMTQTPLSLPVTPGEPASISCRSSQSLLHKNGNNYLDWYLQRPGQSPQLLIYLASNRASGVPDRFSGSGSGTDFTLEISRVQPEDVGVYYCMQGLQTPTFGPGTKVEIK
notes: tested as human IgG
B5: 52B10 (antibody, V domains shown)
VH: EVQLLESGGGLVQPGGSLRLSCAGSESTFGDSWLNWVRQAPGKGLEWVANINKDGSKKEYVESVKGRFTISRDNAKKSVYLQMNSLRVEDTAVYYCLLKGVWGQGTLVTVSS
VL: AIQLTQSPSFLSASVGDRVTITCRASQGISSYLAWYQQKPGKAPKLLIYAASTLQSGVPSRFSGSGSGTEFTLTISSLQPEDFATYYCQQLNSYPITFGPGTKVDIK
notes: tested as human IgG
B6: 12B11 (antibody, V domains shown)
VH: EVQLVESGGGLVKPGRSLRLSCTASGFPFGDYAMSWFRQAPGKGLEWVALISYDGRNNYYADSVKGRFTISRDNSKNTLYLQMNSLRAEDTAVFYCARDRMRGPGGRFYYYHAMDVWGQGTTVTVSS
VL: SYELMQPPSVSRGLRQTATLTCAGTRNDVGNEGASWLQQHQGHPPKLLSYRDTNRPSGISDRFSASRSGNTASLTISGLQPEDEADYYCSAWDSSLRAWVFGGGTKLTVL
notes: tested as human IgG; also called 14E10
B7: 14D9 (antibody, V domains shown)
VH: EVQLVESGGGVVQPGRSLRLSCAASGFTFSSYAMHWVRQAPGKGLEWVAVISYDGSNKYYADSVKGRFTISRDNSKNTLYLQMNSLRAEDTAVYYCARSAWLDSWGQGTLVTVSS
VL: QAGLTQPHSVSGSPGQSVTISCTGTSSDVGSYNHVSWYQQHPGKAPKLMIYDVSKRPSGVSNRFSGSKSGNTASLTISGLQAEDEADYYCSSYTSSSTYVFGTGTKVTVL
notes: tested as human IgG
B8: 16E3 (antibody, V domains shown)
VH: QVQLVESGGGVVQPGRSLRLSCAASGFTFSSNGMHWVRQAPGKGLEWVAAISYNGRNQYYADSLKGRFTISRDNSKNSLYLQMNSLRAEDTAVYYCATPAATLDYWGQGTLVTVSS
VL: B7 VL with A2S, G3V, H8A, V18I, S31G, H34Y, Q40H, S54T, K55Y, Y99L
notes: tested as human IgG
B9: 11F3 (antibody, V domains shown)
VH: QVQLVESGGGVVQPGRSLRLYCAASGFIFSSYAIHWVRQAPGKGLEWVAVISYDGSKKYYADSVEGRFTISRDNSKNSLYLQMNSLRVDDTAVYYCAAHRQLGYWGQGTLVTVSS
VL: B7 VL with A2S, G3V, H8P, V10A, S31G, H34Y, Y99L, T103G, V107L
notes: tested as human IgG
B10: 11D3 (antibody, V domains shown)
VH: QVQLVQSGGGVVQPGRSLRLSCAASGFTFSNFGMHWVRQAPGKGLEWVAVISYDGSNKYYADSVKGRFTISRDNSKNTLYLQMNSLRAEDTAVYYCARNTVTYHDVWGQGTTVTVSS
VL: QPVLTQPASVSGSPGQSITISCTGTSSDVGGYNYVSWYQQHPGKAPKLMINDVSNRPSGVSSRFSGSKSGNTASLTISGLQAEDEADYYCSSYTSSSTLVFGGGTKLTVL
notes: tested as human IgG
B11: 52A9 (antibody, V domains shown)
VH: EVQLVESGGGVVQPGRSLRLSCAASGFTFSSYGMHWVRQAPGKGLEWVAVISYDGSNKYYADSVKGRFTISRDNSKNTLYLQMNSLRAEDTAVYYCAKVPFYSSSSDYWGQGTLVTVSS
VL: B10 VL with P2S, L4V, Y32S, N33K, Y38F, N51Y, S62Y, S91T, S97R, L99W
notes: tested as human IgG
B12: 12C1 (antibody, V domains shown)
VH: EVQLLESGGGLVKPGGSLRLSCAASGFTFNNYAMHWVRQAPGKGLEWLTVISFYGGKQYYADSVKGRFTISRDNSRNTLYLQMNSLRADDTAVYYCARDNGRHFDYWGQGTLVTVSS
VL: B10 VL with N51Y, N55K, S62N, S91T, T94R, S96G, S97R, L99Y, G103S, L107V
notes: tested as human IgG
B13: 52D6 (antibody, V domains shown)
VH: EVQLLESGGGLVQPGRSLRLSCAASGFNFDAYAMHWVRQAPGKGLEWVSGISWNSGYIAYADSVEGRFAISRDNSKNTVFLQMNSLRAEDTAIYYCARDRWLSYWGQGTLVTVSS
VL: QSVLTQPASVSGSPGQSITISCTGTSSDVGGYNYVSWYQQHPGKAPKLMIYDVSKRPSGVSNRFSGSKSGNTASLTVSGLQAEDEAEYYCSSYAGSNFVVFGGGTKLTVL
notes: tested as human IgG
B14: 16B7 (antibody, V domains shown)
VH: QVQLVESGAEVKKPGASVKVSCKASGYTFTSYYVHWVRQAPGQGLEWMGIINPSGGTTSYAQKFQGRVTMTRDTSTSTVYMELSSLRSEDTAVYYCVRDRRVVAATTPSAFDVWGQGTMVTVSS
VL: QSVVTQPPSVSAAPGQRVTISCSGSTSNIGSNYVSWYHQLPGTAPKLLVYHNDKRPSGIPDRFSGSKSGTSATLGITGLQTGDEADYYCGTWDSSLSVWVFGGGTKVTVL
notes: tested as human IgG
B15: PC12 (antibody, V domains shown)
VH: B14 VH with Q1E, V5L
VL: QSVVTQPPSVSAAPGQKVTISCSGSSSNIGNNYVSWYQQLPGTAPKLLIYDNNKRPSGIPDRFSGSKSGTSATLGIVGLQTGDEADYYCATWDGSLSTFLFGPGTKLTVL
notes: tested as human IgG
B16: 15H2 (antibody, V domains shown)
VH: EVQLVESGGGVVQPGRSLRLSCAASGFTFSSYAMHWVRQAPGKGLEWVAVISYDGSKKYYADSVKGRFTISRDNSKNTLYLQMNSLRAEDTAVYYCARVGIAAAVGMDVWGQGTTVTVSS
VL: DIVMTQTPLSLPVTLGQPASISCRSSQSLVYRDGNTYLNWFQQRPGQSPRRLIYKVSNRDSGVPDRFSGSGSGTDFTLKISRVEAEDVGVYYCMQGTHWPLTFGQGTKVEI
notes: tested as human IgG; 181/182 '15H2' while the text calls the same pair '15H12'; also called 15H12
B17: 52C6 (antibody, V domains shown)
VH: QVQLVESGGGLVQPGGSLRLSCAASGFTFDDYAMHWVRQAPGKGLQWVAVISHDGSAKYYADSVKGRFTISRDNAKNSLYLQMNSLRAEDTAVYYCARSRWGDNWGQGTLVTVSS
VL: SYELMQPASVSGSPGQSITISCTGTSSDVGGYNYVSWYQQHPGKAPKLMIYDVSKRPSGVSNRFSGSKSGNTASLTISGLQAEDEADYYCSSYTSSSTPYVFGTGTKLTVL
notes: tested as human IgG
B18: 52H9 (antibody, V domains shown)
VH: QVQLVESGGGVVQPGRSLRLSCAASGFTFSSYGMHWVRQAPGKGLEWVAVISYDGSNKYYADSVKGRFTISRDNSKNTLYLQMNSLRAEDTAVYYCAKLSGPTAKFDYWGQGTLVTVSS
VL: QSVLTQPASVSGSPGQSVTISCTGTSRDVGGYNFVSWYQQHPGKAPKLMIYDVSNRPSGVSNRFTGSKSGNTASLTISGLQAEDEADYHCSSYRRGDTLVFGGGTKLTVL
notes: tested as human IgG
B19: 16A8 (antibody, V domains shown)
VH: QVQLVESGGGVVQPGRSLRLSCAASGFTFSNYGMHWVRQAPGKGLEWVATISYDGSNNYYAASVKGRFTVSRDNSTLYLQMNSLRAEDTAVYYCAGAIAAAGVWGQGTLVTVSS
VL: LPVLTQPASVSGSPGQSITISCTGTSSDVGGYNYVSWYQQHPGKAPKLMIYDVSNRPSGVSDRFSGSKSGNTASLNISGLQPDDEAEYYCSSYRTKNTLVFGGGTKLTVL
notes: tested as human IgG
B20: 14D7 (antibody, V domains shown)
VH: QVQLVQSGGGVVQPGRSLRLSCAASGFTFSSYGMHWVRQAPGKGLEWVAVISYDGSNKYYADSVKGRFTISRDNSKNTLYLQMNSLRAEDTAVYYCAKWGRRGAPDYWGQGTLVTVSS
VL: ETTLTQSPGTLSVSPGERATLSCRASQSVSSNLAWYQQKPGQAPRLLIYGASTRATGIPARFSGSGSGTDFTLTISSLEPEDFAVYYCQQRNNWPLTFGGGTKVEIK
notes: tested as human IgG
B21: 14C11 (antibody, V domains shown)
VH: QVQLQQSGPGLVKPSQTLSLTCAISGDTVSTNRAAWYWIRQSPSRGLEWLGRTHYRSRWLNDYAPSVKSRITINPDTSKNQFSLQLNSVTPEDTAVYYCARGAAGRAFDIWGQGTLVTVSS
VL: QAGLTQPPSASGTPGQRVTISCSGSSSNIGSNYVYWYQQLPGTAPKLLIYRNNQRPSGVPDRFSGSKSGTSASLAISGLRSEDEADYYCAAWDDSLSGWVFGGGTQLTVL
notes: tested as human IgG

These binders were tested against T1, human CXCR5 (human, UniProt P32302 1-372) (assay: flow cytometry on CHO-CXCR5 cells, IgG titration).
T1 construct: whole, on cells; also called hu-CHO; CHO-CXCR5 cells
T1 sequence (looked up): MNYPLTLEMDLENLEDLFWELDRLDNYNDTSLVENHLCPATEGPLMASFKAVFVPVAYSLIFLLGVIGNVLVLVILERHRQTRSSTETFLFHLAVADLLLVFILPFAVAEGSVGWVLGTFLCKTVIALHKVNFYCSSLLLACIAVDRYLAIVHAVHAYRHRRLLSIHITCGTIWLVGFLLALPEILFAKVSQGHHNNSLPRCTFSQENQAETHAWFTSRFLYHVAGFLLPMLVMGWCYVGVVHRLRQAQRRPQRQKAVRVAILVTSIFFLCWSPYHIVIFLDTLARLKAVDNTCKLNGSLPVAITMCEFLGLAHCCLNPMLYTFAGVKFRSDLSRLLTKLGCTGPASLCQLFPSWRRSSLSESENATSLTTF
From the text: This example describes a cellular binding assay to determine the EC₅₀ for anti-CXCR5 antibodies binding to human CXCR5. […] In this example, CHO-CXCR5 cells were lifted from culture flasks using non-enzymatic Cell Dissociation Buffer—PBS based (Life Technologies #13151-014). Cells were resuspended in FACS Buffer (2% Fetal Bovine Serum in PBS) at 1×10⁶ cells/ml and […] were aliquoted into the wells of a 96-well plate. Plated cells were spun down and the supernatant discarded. Cells were resuspended in 30 μl FACS Buffer serially diluted concentrations of CXCR5 IgG in triplicate. Plates were incubated for 1 hr at 4° C. and then washed 2× with FACS Buffer. Cells were resuspended in 50 μl goat anti-human IgG (γ-chain specific)-PE conjugated secondary antibody (Southern Biotech #2040-09) diluted 1:500 in FACS Buffer. Cells were further incubated for 30 min at 4° C. and then washed 1× with FACS Buffer. The cells were resuspended in a final volume of 30 μl FACS Buffer and analyzed using the Intellicyt Flow Cytometer. Median fluorescence in the FL-2H channel was determined using FlowJo software and EC₅₀ value was determined by plotting the data in GraphPad Prism and analyzing using a variable slope non-linear regression.

Binder | EC50
B1 | 3 nM
B2 | 3.8 nM
B3 | 0.5 nM and 0.54 nM
B4 | 10 nM
B5 | 0.5 nM and 0.46 nM
B6 | 53 nM and 57 nM
B7 | 22 nM
B8 | 250 nM
B9 | 13 nM
B10 | 2.7 nM
B11 | 31 nM
B12 | 12 nM
B13 | 24 nM
B14 | 88 nM
B15 | 4.2 nM
B16 | 6.1 nM
B17 | 3 nM and 2.8 nM
B18 | 4 nM
B19 | 2.3 nM
B20 | 4 nM
B21 | 21 nM
